The RNAGym collection of RNA variant scans (doi:10.1073/pnas.2313332121)

B1: TPR t1 (parent)
chain: GACCAAUCUGCCCUCAGAGCUCGAGAACAUCUUCGGAUGCAGAGGAGGCAGGCUUCGGUGGCGCGAUAGCGCCAACGUCCUCAACCUCCAAUGCAUCCCACCACAUGAUGAUGCCUGAAGAGCCUUGGUUUUUUG

Variants of: B1
Test: polymerase ribozyme fitness, log enrichment relative to wild type (log ratio); higher = more active; in vitro selection for triplet polymerase activity
How it was run: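 The heterodimeric triplet polymerase ribozyme's subunits were each mutagenized into PCR-built libraries and transcribed. Every library was selected once, in triplicate, by annealing with a biotinylated primer, the partner subunit and triplets, incubating frozen at −7 °C, gel-excising extended constructs, capturing on streptavidin beads and running RT-PCR. Input and output libraries were Illumina-sequenced, with genotypes kept only at ≥10 input reads and ≥1 read per output. Fitness, from inverse-variance-weighted replicate averages, is the base-2 logarithm of genotype enrichment over wild-type enrichment.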

Compared with U54A G60C G117C, G10U U21G C70A is lower in “polymerase ribozyme fitness (log ratio)” value: -3.99 for the first, -5.22 for the second.

First: A18G C123U U132A
Second: C88A C104A
The “polymerase ribozyme fitness (log ratio)” value of the first is lower: -2.14 for the first, -1.63 for the second.

Going from U21G A119G to U7C C62A C99G U112G U132C U134A G135U, the “polymerase ribozyme fitness (log ratio)” value falls from -0.142 to -7.59.

Going from C40U C56G to A6U G60C, the “polymerase ribozyme fitness (log ratio)” value rises from -1.16 to 0.0676.

First: C12U G60A
Second: A5C C13U G44C G48U C115U
The “polymerase ribozyme fitness (log ratio)” value of the first is higher: -0.607 for the first, -3.4 for the second.

Going from A41U A90C to U7C C62U, the “polymerase ribozyme fitness (log ratio)” value rises from -1.41 to -1.11.

Going from C15U A43C C70A C123U C124A to A90C C101A, the “polymerase ribozyme fitness (log ratio)” value rises from -4.89 to -2.32.

Going from A18C C28U to C4U C8A C28U U59A, the “polymerase ribozyme fitness (log ratio)” value rises from -5.11 to -2.29.

Compared with A41U C80U, C62A C104A A119U is lower in “polymerase ribozyme fitness (log ratio)” value: -1.77 for the first, -3.63 for the second.

Going from C101G C102U G117A to G122A C123G, the “polymerase ribozyme fitness (log ratio)” value rises from -7.15 to 1.74.

First: A90G C104U
Second: C49G G60A A75U G93U
The “polymerase ribozyme fitness (log ratio)” value of the first is higher: -0.0421 for the first, -3.65 for the second.

First: C104U
Second: C104G
The “polymerase ribozyme fitness (log ratio)” value of the first is higher: 0.111 for the first, -6.88 for the second.

U38C C56U and C56A C72U are within 0.2 log units of each other in “polymerase ribozyme fitness (log ratio)” value: -0.488 for the first, -0.391 for the second.

Compared with C4U C11A C13U A16C U30G C49A C64G C102G U112G C115A, C49G U55C C98U is higher in “polymerase ribozyme fitness (log ratio)” value: -7.83 for the first, -2.01 for the second.

Compared with C31A G63U C88G A121U, G35U A121G is higher in “polymerase ribozyme fitness (log ratio)” value: -6.64 for the first, -3.56 for the second.

Going from A5G U109G to C22G C86U C123A, the “polymerase ribozyme fitness (log ratio)” value rises from -4.99 to -3.08.

Compared with C3G C88G, A46C G51C is lower in “polymerase ribozyme fitness (log ratio)” value: -2.34 for the first, -4.63 for the second.

Going from G17C G61U to A43U G71A A91G, the “polymerase ribozyme fitness (log ratio)” value rises from -3.71 to -3.35.

Compared with C34A G61A, C12U A41U is higher in “polymerase ribozyme fitness (log ratio)” value: -2.98 for the first, -0.786 for the second.

Going from C3A A83C C97U G110A to C11U A46U C86G C104U, the “polymerase ribozyme fitness (log ratio)” value rises from -3.93 to -2.24.

First: C8A G47U U78A A83C C98G U112A
Second: C4A U112A A119U C123U U125C
The “polymerase ribozyme fitness (log ratio)” value of the first is lower: -7.02 for the first, -0.636 for the second.

Going from G19U C56A to G58U G60C C88U A95U, the “polymerase ribozyme fitness (log ratio)” value rises from -3.03 to -2.05.

Compared with C72U C76A C88A U96A, A66U C76U C89G C124U G128U U132C is lower in “polymerase ribozyme fitness (log ratio)” value: -3.05 for the first, -5.09 for the second.

C4A U7A and G77C A95U are within 0.2 log units of each other in “polymerase ribozyme fitness (log ratio)” value: -0.986 for the first, -0.809 for the second.

Going from C62G U129A to G10U C73A U78G A111G, the “polymerase ribozyme fitness (log ratio)” value rises from -3.98 to 0.173.

Compared with C53G C114A U125C, G113A U126G is lower in “polymerase ribozyme fitness (log ratio)” value: -2.07 for the first, -3.39 for the second.

First: G113C U126C
Second: G45A G51U
The “polymerase ribozyme fitness (log ratio)” value of the first is higher: -2.46 for the first, -4.34 for the second.

Compared with G113C G120A, A2U A83G is lower in “polymerase ribozyme fitness (log ratio)” value: -2.39 for the first, -3.47 for the second.

First: C70A C82A
Second: U38A A50U C73G A121U
The “polymerase ribozyme fitness (log ratio)” value of the first is lower: -1.54 for the first, -0.841 for the second.

Going from G57A U106G A121C to U9G C62A, the “polymerase ribozyme fitness (log ratio)” value rises from -0.75 to -0.542.

First: U14A G63C C82U U112G
Second: C13A G69U C73G
The “polymerase ribozyme fitness (log ratio)” value of the first is higher: -1.65 for the first, -5.01 for the second.

First: A16U C56A G117U
Second: U38G C62A U106A G113U
The “polymerase ribozyme fitness (log ratio)” value of the first is higher: -3.11 for the first, -6.66 for the second.

Going from G25C C53U to C31U C86U, the “polymerase ribozyme fitness (log ratio)” value rises from -5.22 to -4.08.

Compared with G35C C72U, C28G C34U G35U A37U A95C C114U U133G is lower in “polymerase ribozyme fitness (log ratio)” value: -4.96 for the first, -6.83 for the second.

First: A6U A46U G110U
Second: U9C G113A
The “polymerase ribozyme fitness (log ratio)” value of the first is lower: -2.57 for the first, -0.364 for the second.

Compared with A108G U116A C123U, C20U A43C C82U C98U is higher in “polymerase ribozyme fitness (log ratio)” value: -6.42 for the first, -4.43 for the second.

First: C12U G60U G69A C86U C101A U112C
Second: C12U C20A A75C C114A G117U
The “polymerase ribozyme fitness (log ratio)” value of the first is lower: -6.42 for the first, -5.53 for the second.

First: G19C G71U C114A G128A
Second: A6G C72A C79A C102U A118U
The “polymerase ribozyme fitness (log ratio)” value of the first is lower: -2.59 for the first, -2.3 for the second.

First: C88A C99A U125G
Second: U78C A83U
The “polymerase ribozyme fitness (log ratio)” value of the first is lower: -6.88 for the first, -0.61 for the second.

G42A C94G U130G and A75U C85A U92C G113C are within 0.2 log units of each other in “polymerase ribozyme fitness (log ratio)” value: -3.82 for the first, -3.69 for the second.

Going from U55C C56U U125A to C13G C20U G93A C124A, the “polymerase ribozyme fitness (log ratio)” value falls from -0.641 to -1.04.

First: A84U C114U
Second: G58A G71A U81G U132C
The “polymerase ribozyme fitness (log ratio)” value of the first is higher: -2.03 for the first, -3.8 for the second.
